Test results reported in patent US20100273186A1, “SPLIT MUTANT HYDROLASE FUSION REPORTER AND USES THEREOF” (Promega Corporation, priority 2007, published 2010).

Tests used:
[1] = Fluorescence polarization (FP) labeling assay; type: binding
Description: Fluorescence polarization (FP) is ideal for the study of small fluorescent ligands binding to proteins. It is unique among methods used to analyze molecular binding because it gives direct nearly instantaneous measure of a substrate bound/free ratio. Therefore, an FP assay was developed as an alternative approach to fluorimage gel analysis of the purified DhaA mutants. […] To place this rate in perspective, approximately 42 and 420-fold more A7 and parental, i.e., DhaA.H272F, protein, respectively, was required in the reaction to obtain measurable rates. Under the labeling conditions used, it is evident that the H11YL mutant was also considerably faster than A7 and parental, DhaA.H272F proteins with the fluorescein-based substrate. However, it appears that labeling of H11YL with carboxyfluorescein-C10H21NO2—Cl is markedly slower than labeling with the corresponding carboxytetramethylrhodamine-C10H21NO2—Cl substrate. Four-fold more H11YL protein was used in the carboxyfluorescein-C10H21NO2—Cl reaction (150 nM) versus the carboxytetramethylrhodamine-C10H21NO2—Cl reaction (35 nM), yet the rate observed appeared to be qualitatively slower than the observed carboxytetramethylrhodamine-C10H21NO2—Cl rate.
Based on the sensitivity and truly homogenous nature of this assay, FP was used to characterize the labeling properties of the purified DhaA mutants with the fluorescently coupled substrates. The data from these studies was then used to calculate a second order rate constant for each DhaA mutant-substrate pair. […] However, in each case labeling was slower with the carboxyfluorescein-C10H21NO2—Cl substrate. All of the first generation DhaA mutants characterized by FP had rates that ranged from 7 to 3555-fold faster than the corresponding parental protein. By far, the biggest impact on labeling rate by a single amino acid substitution occurred with the three replacements at the 273 position (Y273L, Y273M, and Y273C) in the DhaA.H272F background. Nevertheless, in each of the first generation DhaA.H272F mutants tested, labeling with the carboxyfluorescein-C10H21NO2—Cl substrate always occurred at a slower rate (1.6 to 46-fold). […] The H11YL rate constant of 2.2×10^6 M^−1 sec^−1 was nearly identical to the rate constant calculated for a carboxytetramethylrhodamine-coupled biotin/streptavidin interaction. This value is consistent with an on-rate of 5×10^6 M^−1 sec^1 determined for a biotin-streptavidin interaction using surface plasmon resonance analysis (Qureshi et al., 2001). Several of the second generation mutants also had improved rates with the carboxyfluorescein-C10H21NO2—Cl substrate, however, as noted previously, these rates were always slower than with the carboxytetramethylrhodamine-C10H21NO2—Cl substrate. […]

[2] = target: T1, rapamycin-mediated FRB/FKBP protein-protein interaction (Homo sapiens, UniProt P42345+P62942); assay: Protein complementation labeling (PCL) in vitro with split HT2; type: biochemical; settings: with or without 1 μM rapamycin, 0.1 μM TMR ligand
T1 construct: made in house; host or cells: cell-free: RiboMax transcription followed by Wheat Germ Plus translation
T1 sequence (P42345 2012-2144 limits assumed): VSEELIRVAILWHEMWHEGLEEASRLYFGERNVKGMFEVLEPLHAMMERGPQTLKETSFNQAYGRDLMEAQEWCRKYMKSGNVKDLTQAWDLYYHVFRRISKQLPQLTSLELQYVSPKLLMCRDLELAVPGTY
T1 sequence (P62942 whole entry): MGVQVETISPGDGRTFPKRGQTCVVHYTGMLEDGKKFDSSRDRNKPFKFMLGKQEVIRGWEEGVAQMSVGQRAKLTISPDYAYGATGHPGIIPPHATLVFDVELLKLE
Method: The rapamycin-mediated FRB/FKBP protein-protein interaction and a mutant DhaA were employed in a PCL. FRB and FKBP will only interact when rapamycin is present. Therefore, if PCL is successful, the reconstituted reporter is labeled only when the fusion proteins are incubated together in the presence of rapamycin.
Two pF9 (Kan) vectors were generated which contained either FRB or FKBP ORF plus the linker sequence (GlyGlyGlyGlySer)2 (SEQ ID NO:14 represents GlyGlyGlyGlySer) upstream of the SefI/PmeI sites. A mutant DhaA gene (HT2) at positions corresponding to those useful to prepare Renilla luciferase fragments for PCS (see Example 2 and FIG. 7) with FRB-N terminal and FKBP-C terminal fusions. HT2 N- and C-termini halves were amplified using PCR primers and cloned into the SefI/PmeI sites. PCL was performed in vitro by expressing each clone individually using RiboMax followed by Wheat Germ Plus reactions (HT2). Protein was expressed with or without FluoroTect™. FluoroTect™ labeling ensured that all proteins were expressed in approximately equal amounts (data not shown). Unlabeled proteins were then incubated alone or with the appropriated partner with or without 1 μM rapamycin. Ten μl of these products were then incubated with 0.1 μM of a TMR labeled ligand for the mutant dehalogenase, for 2 hours in the dark. […]

[3] = Kinetic labeling studies, fluorimage gel analysis; type: binding; settings: 10 ng protein, refined time-course, fluorimaged gel
Method: To facilitate comparative kinetic studies several improved DhaA mutants were selected for purification using a Glutathione Sepharose 4B resin. In general, production of DhaA.H272F and DhaA.D106C based fusions in E. coli was robust, although single amino acid changes may have negative consequences on the production of DhaA. As a result of this variability in protein production, the overall yield of the DhaA mutants also varied considerably (1-15 mg/mL). Preliminary kinetic labeling studies were performed using several DhaA.H272F derived mutants. Many, if not all, of the mutants chosen for analysis had faster labeling kinetics than the H272F parent. In fact, upon closer inspection of the time course, the labeling of several DhaA mutants including the first generation mutant YL and the two second generation mutants, A7YM and H11YL mutants appeared to be complete by 2 minutes. A more expanded time course analysis was performed on the DhaA.H272F A7 and the two second generation DhaA.H272F mutants A7YM and H11YL. […] The fluorescent bands on gel were quantitated and the relative rates of product formation determined. […] Under these labeling conditions a linear initial rate could be measured. Quantitation of the fluorimaged gel data allowed second order rate constants to be calculated. […]

[4] = Thermostability of mutant DhaAs; type: physicochemical
Method: Moreover, V7>V6>V7F>V3>HT2 for thermostability. For example, under some conditions (30 minute exposure to 48° C.) purified V7F loses 50% of its activity, while V7 still maintains 80% activity. The thermostability discrepancy between the two is more dramatic when they V7 and V7F are expressed in E. coli and analyzed as lysates.

[5] = target: T1, rapamycin-mediated FRB/FKBP protein-protein interaction; assay: PCL in transiently transfected CHO cells; type: cell-based; settings: +/−1 μM rapamycin, 1.0 μM HaloTag TMR ligand
Method: For transient transfections, CHO cells were plated in a 6 well plate and transfected in duplicate using TransIT®-CHO. The next day, cells were incubated +/−1 μM rapamycin for 2.5 hours followed by 1.0 μM HaloTag® TMR ligand for 1 hour. Cells were washed in PBS, trypsinized, pelleted and mechanically lysed in 200 ul PBS with protease inhibitor and RQDNase I. Normalized amounts of proteins were microwaved for 30 seconds on high and run on a denaturing NuPAGE® gel.

TMR labeling [2]: labeled
B1: H11YL: second generation DhaA.H272F mutant, H11 recombined with Y273L; SEQ ID NO:18 (protein)
chain: SEIGTGFPFDPHYVEVLGERMHYVDVGPRDGTPVLFLHGNPTSSYLWRNIIPHVAPSHRCIAPDLIGMGKSDKPDLDYFFDDHVRYLDAFIEALGLEEVVLVIHDWGSALGFHWAKRNPERVKGIACMEFIRPIPTWDEWPEFARETFQAFRTADVGRELIIDQNAFIEGALPMGVVRPLTEVEMDHYREPFLKPVDREPLWRFPNELPIAGEPANIVALVEAYMNWLHQSPVPKLLFWGTPGVLIPPAEAARLAESLPNCKTVDIGPGLFLLQEDNPDLIGSEIARWLPAL
carboxyfluorescein-C10H21NO2—Cl labeling rate slower/lower than carboxytetramethylrhodamine-C10H21NO2—Cl labeling rate [1]: 100 fold | calculated second order rate constant ([1]; FP): 2.2e+06 M⁻¹ s⁻¹ | second order rate constant compared with the DhaA.H272F parent ([1]; FP): over four orders of magnitude higher | second order rate constant for labeling [3]: 500000 M⁻¹ s⁻¹ | thermostability ranking [4]: V7>V6>V7F>V3>HT2 | TMR labeling in CHO cells [5]: labeled irrespective of rapamycin addition
